Data published in publication doi:10.1101/2024.12.17.628833 (bioRxiv, 2024).

Biological target: the molecule itself
Assay: cryo-EM structure

Row | Protein | stoichiometry N
1 | AtGORK^623 (residues 1 to 623) (domain or fragment, Arabidopsis thaliana, UniProt Q94A76 1-623, looked up) MGRLRRRQEIIDHEEEESNDDVSSRRGKLSLAETFRWLDSSEHRRIETDGHNDYKYIIHPKNRWYKAWEMFILVWAIYSSLFTPMEFGFFRGLPERLFVLDIVGQIAFLVDIVLQFFVAYRDTQTYRTVYKPTRIAFRYLKSHFLMDFIGCFPWDLIYKASGKHELVRYLLWIRLFRVRKVVEFFQRLEKDTRINYLFTRILKLLFVEVYCTHTAACIFYYLATTLPPENEGYTWIGSLKLGDYSYENFREIDLWKRYTTALYFAIVTMATVGYGDIHAVNLREMIFVMIYVSFDMVLGAYLIGNITALIVKGSNTERFRDKMNDLISFMNRKKLGRDLRSQITGHVRLQYDSHYTDTVMLQDIPASIRAKIAQLLYLPYIKKVPLFKGCSTEFINQIVIRLHEEYFLPGEVITEQGNVVDHLYFVCEGLLEALVTKTDGSEESVTLLGPHTSFGDISIICNISQPFTVRVCELCHLLRLDKQSFSNILEIYFHDGRTILNNIMEEKESNDRIKKLESDIVIHIGKQEAELALKVNSAAFQGDFYQLKSLIRSGADPNKTDYDGRSPLHLAACRGYEDITLFLIQEGVDVNLKDKFGHTPLFEAVKAGQEGVIGLLVKEGASF | 4
2 | AtGORK^510 (residues 1 to 510) (domain or fragment, Arabidopsis thaliana, UniProt Q94A76 1-510, looked up) MGRLRRRQEIIDHEEEESNDDVSSRRGKLSLAETFRWLDSSEHRRIETDGHNDYKYIIHPKNRWYKAWEMFILVWAIYSSLFTPMEFGFFRGLPERLFVLDIVGQIAFLVDIVLQFFVAYRDTQTYRTVYKPTRIAFRYLKSHFLMDFIGCFPWDLIYKASGKHELVRYLLWIRLFRVRKVVEFFQRLEKDTRINYLFTRILKLLFVEVYCTHTAACIFYYLATTLPPENEGYTWIGSLKLGDYSYENFREIDLWKRYTTALYFAIVTMATVGYGDIHAVNLREMIFVMIYVSFDMVLGAYLIGNITALIVKGSNTERFRDKMNDLISFMNRKKLGRDLRSQITGHVRLQYDSHYTDTVMLQDIPASIRAKIAQLLYLPYIKKVPLFKGCSTEFINQIVIRLHEEYFLPGEVITEQGNVVDHLYFVCEGLLEALVTKTDGSEESVTLLGPHTSFGDISIICNISQPFTVRVCELCHLLRLDKQSFSNILEIYFHDGRTILNNIMEEKESN | 4
3 | full-length Arabidopsis GORK (AtGORK^FL, residues 1 to 820) (natural protein, Arabidopsis thaliana, UniProt Q94A76 1-820, looked up) MGRLRRRQEIIDHEEEESNDDVSSRRGKLSLAETFRWLDSSEHRRIETDGHNDYKYIIHPKNRWYKAWEMFILVWAIYSSLFTPMEFGFFRGLPERLFVLDIVGQIAFLVDIVLQFFVAYRDTQTYRTVYKPTRIAFRYLKSHFLMDFIGCFPWDLIYKASGKHELVRYLLWIRLFRVRKVVEFFQRLEKDTRINYLFTRILKLLFVEVYCTHTAACIFYYLATTLPPENEGYTWIGSLKLGDYSYENFREIDLWKRYTTALYFAIVTMATVGYGDIHAVNLREMIFVMIYVSFDMVLGAYLIGNITALIVKGSNTERFRDKMNDLISFMNRKKLGRDLRSQITGHVRLQYDSHYTDTVMLQDIPASIRAKIAQLLYLPYIKKVPLFKGCSTEFINQIVIRLHEEYFLPGEVITEQGNVVDHLYFVCEGLLEALVTKTDGSEESVTLLGPHTSFGDISIICNISQPFTVRVCELCHLLRLDKQSFSNILEIYFHDGRTILNNIMEEKESNDRIKKLESDIVIHIGKQEAELALKVNSAAFQGDFYQLKSLIRSGADPNKTDYDGRSPLHLAACRGYEDITLFLIQEGVDVNLKDKFGHTPLFEAVKAGQEGVIGLLVKEGASFNLEDSGNFLCTTVAKGDSDFLKRLLSSGMNPNSEDYDHRTPLHVAASEGLFLMAKMLVEAGASVISKDRWGNSPLDEARLCGNKKLIKLLEDVKNAQSSIYPSSLRELQEERIERRKCTVFPFHPQEAKEERSRKHGVVVWIPSNLEKLIVTAAKELGLSDGASFVLLSEDQGRITDIDMISDGHKLYMISDTTDQT | 4
